Data taken from PMC9508356.

Target: biotinylated SARS-CoV-2 spike protein subdomain 1 (S1) (SARS-CoV-2) (UniProt P0DTC2)
Assay: BLI

Substance	Kd [nM]	koff [s⁻¹]	kon [M⁻¹ s⁻¹]
recombinant human albumin ACE2 genetic fusion with FcRn null-binding albumin sequence (NB-ACE2) (from UniProt Q9BYF1-1 18-740)	31.7	0.000209	9640
recombinant human albumin ACE2 genetic fusion with wild type albumin sequence (WT-ACE2) (from UniProt Q9BYF1-1 18-740)	32.8	0.00028	7860
